Experiment [1] deals with CtMrs2 106-539 in MSP1D1/POPC nanodiscs, open-state sample prepared with EDTA (Chaetomium thermophilum). The experiment in a line: cryo-EM structure; open state: MSP1D1/POPC nanodiscs, 50 mM HEPES pH 7.5, 100 mM NaCl, 2 mM EDTA, 1 mM fluorinated Fos-choline-8; C1 and C5 maps.
Experiment [2] deals with CtMrs2 106-539 lacking GFP (TEV-cleaved), in MSP1D1/POPC nanodiscs, closed-state sample with Mg2+ (Chaetomium thermophilum). The experiment can be described thus: cryo-EM structure; closed state: MSP1D1/POPC nanodiscs, 50 mM HEPES-Na pH 7.5, 100 mM NaCl, 2 mM MgCl2 plus additional 10 mM MgCl2; C1 and C5 maps.
Experiment [3] addresses GFP-fused CtMrs2 106-539 E374A;E378A (Chaetomium thermophilum). The experiment can be described thus: SEC; purified GFP-fused CtMrs2 forms used for the limited proteolysis assay; final SEC buffer as buffer A but pH 8.0, DDM.
Experiment [4] concerns the target GFP-fused CtMrs2 106-539 E374R (Chaetomium thermophilum). Described as above.
Experiment [5] concerns the target GFP-fused CtMrs2 106-539 S328A;T329A (Chaetomium thermophilum). The experiment is described as above.
Experiment [6] concerns the target GFP-fused CtMrs2 106-539 S396A;S397A (Chaetomium thermophilum). The description is as above.
Experiment [7] addresses GFP-fused CtMrs2 (His10-GFP-G4S-TEV-CtMrs2 106-539), wild type (Chaetomium thermophilum). The experiment in a line: SEC; detergent-solubilised GFP-fused CtMrs2 on Superose 6; buffer A (50 mM HEPES-NaOH pH 7.5, 150 mM NaCl, 10% glycerol) with 0.05% DDM and 2 mM MgCl2. In general terms: In gel filtration, larger molecules generally elute earlier.
For experiment [8] the target is unchanged. The experiment can be described thus: native gel or EMSA; Coomassie-stained blue native PAGE of purified detergent-solubilised GFP-fused CtMrs2.
Experiment [9] shares this target. The experiment in a line: SEC; purified GFP-fused CtMrs2 forms used for the limited proteolysis assay; final SEC buffer as buffer A but pH 8.0, DDM.

This is an account of results in PMC11919701.

The stoichiometry N is the number of molecules, sites or subunits per partner or assembly.

In experiment [1], “CtMrs2 106-539 in MSP1D1/POPC nanodiscs, open-state sample prepared with EDTA (natural protein)” gave a stoichiometry N of 5.
As for “CtMrs2 106-539 lacking GFP (TEV-cleaved), in MSP1D1/POPC nanodiscs, closed-state sample with Mg2+ (natural protein)”, the stoichiometry N in [2] turned out to be 5.
As for “GFP-fused CtMrs2 106-539 E374A;E378A (natural protein)”, the stoichiometry N in experiment [3] was 5.
“GFP-fused CtMrs2 106-539 E374R (natural protein)” displayed a stoichiometry N in experiment [4] of 5.
In experiment [5], “GFP-fused CtMrs2 106-539 S328A;T329A (natural protein)” came in with a stoichiometry N of 5.
“GFP-fused CtMrs2 106-539 S396A;S397A (natural protein)” came in with a stoichiometry N in experiment [6] of 5.
Regarding “GFP-fused CtMrs2 (His10-GFP-G4S-TEV-CtMrs2 106-539), wild type (natural protein)”, the stoichiometry N in experiment [7], in experiment [8] and in experiment [9] was 5 each time.
